The values that follow come from patent publication US20030108957A1.

Assay [1] deals with GroEL (E. coli) (UniProt P0A6F5).
Assay [2] deals with guanyl-nucleotide binding protein Ras (21 kDa). As to the kind of experiment: competition fluorescence polarization: 4 µM Ras (negative control) preincubated with 4 µM unlabeled pyrrhocoricin, then 1 nM fluorescein-K-pyrrhocoricin; used as the correction for the DnaK and GroEL readings. In general terms: Fluorescence polarisation rises when a labelled molecule tumbles more slowly, as on binding a larger partner.

Assay [3] has the same target. The experiment in a line: competition fluorescence polarization: 4 µM Ras (negative control) preincubated with 8 µM unlabeled pyrrhocoricin, then 1 nM fluorescein-K-pyrrhocoricin; used as the correction for the DnaK and GroEL readings.

“fluorescein-labeled β-tubulin fragment aa434-445 (peptide)” yielded a millipolarization over the background in assay [1] of 50%.
With “pyrrhocoricin (unlabeled, all L-amino acids, without sugar) (peptide)”, the decrease of the millipolarization reading after preincubation (millipolarization units) in assay [2] came out at 16; in assay [3], 27.
